Assay results published in patent US10088479B2, “Biomarker and uses thereof” (ISIS INNOVATION LIMITED, priority 2014, dated 2018).

B1: FBG: recombinant fibrinogen-like globe domain of human tenascin-C (protein)
chain: GLLYPFPKDCSQAMLNGDTTSGLYTIYLNGDKAEALEVFCDMTSDGGGWIVFLRRKNGRENFYQNWKAYAAGFGDRREEFWLGLDNLNKITAQGQYELRVDLRDHGETAFAVYDKFSVGDAKTRYKLKVEGYSGTAGDSMAYHNGRSFSTFDKDTDSAITNCALSYKGAFWYRNCHRVNLMGRYGDNNHSQGVNWFHWKGHEHSIQFAEMKLRPSNFRNLEGRRKRA
modifications: left off: small tags and cut ends
notes: recombinant fibrinogen-like globe domain of human tenascin-C

Legend:
[1] = system: primary human macrophages; assay: Cytokine synthesis (ELISA) in primary human macrophages stimulated with tenascin-C or its domains; format: cell-based; conditions: 24 h
Procedure: Human monocytes were isolated from peripheral blood (London Blood Bank) and macrophages were derived from monocytes after differentiation for 4 days with 100 ng/ml of M-CSF as previously described (Foxwell (1998)).
(§1) Immediately after isolation, RA membrane cells and macrophages were cultured at 1×10^5 cells/well in RPMI 1640 containing 10% (v/v) FBS and 100 U/ml (Units/ml) penicillin/streptomycin in 96-well tissue culture plates for 24 hours before stimulation. Synovial fibroblasts (used only at either passage number 2 or 3) were cultured at 1×10^4 cells/well in DMEM containing 10% (v/v) FBS and 100 U/ml penicillin/streptomycin in 96-well tissue culture plates for 24 hours before stimulation.
Cells were incubated for 24 hours at 37° C. with the indicated doses of tenascin-C and recombinant tenascin-C fragments (1.0 μM-1.0 nM). […]
(§2) Supernatants were subsequently examined for the presence of the cytokines TNF-α, IL-6, and IL-8 by enzyme-linked immunosorbent assay (ELISA) according to the manufacturer's instructions. Absorbance was read on a spectrophotometric ELISA plate reader (Labsystems Multiscan Biochromic, Vantaa, Finland) and analyzed using the Ascent software program (Thermo Labsystems, Altrincham, UK).

[2] = system: RA synovial fibroblasts; assay: Cytokine synthesis (ELISA) in RA synovial fibroblasts stimulated with tenascin-C, FBG or LPS; format: cell-based, human; conditions: 24 h; for cytokine synthesis (IL-6, IL-8) in synovial fibroblasts: LPS 10 ng/ml
Source text: (§3) RA membrane cells (representing a mixed population of all synovial cell types) were to isolated from synovial membranes obtained from patients undergoing joint replacement surgery as previously described (Brennan (1989)). RA synovial fibroblasts were isolated from the mixed population of RA membrane cells as previously described (Brennan (1989)). The study was approved by the local Trust ethics committee (Riverside NHS Research Committee), and waste tissue (synovium after joint replacement surgery) was obtained only after receiving signed informed consent from the patient and anonymyzing the tissue to protect patient identity.
as §1
(§4) Cells were incubated for 24 hours at 37° C. with the indicated doses of tenascin-C and recombinant tenascin-C fragments (1.0 μM-1.0 nM). Cells were also stimulated where indicated with LPS (1 ng/ml for human macrophages, 10 ng/ml for human fibroblasts, RA membrane cells and HEKs, 100 ng/ml for MEFS and BMDMs and 10 ng/ml for HEKS), PAM3 (10 ng/ml for human macrophages, human fibroblasts, and HEKs, 100 ng/ml for MEFs and BMDMs), murine IL-1 (5 ng/ml for MEFS) and murine TNF-α (100 ng/ml for MEFS). Unless specifically stated otherwise rough LPS was used for in vitro studies.
as §2

[3] = system: serum from RA patients; assay: Western blot of citrullinated tenascin-C probed with serum from RA patients or healthy controls; format: binding, human; conditions: sera from RA patients or normal healthy controls
Procedure: 33.33 ul of citrullination reaction (cit-TNC alone or cit-TNC combined with cit-FBG) was loaded into NuPAGE® Novex 4-12% Bis-tris gel using a 1.0 mm 2D single lane well.
After electrophoresis proteins were transferred to nitrocellulose and the membrane blocked and then cut into strips (up to 8 strips ˜0.7 cm wide). Strips were incubated with serum from RA patients or normal healthy individuals diluted 1:100 in 5% milk TBS-tween. Strips were incubated in 15 ml falcon tubes on rollers 1 h room temperature, then washed 3×5 min, 1×15 min in tubes with TBS-Tween. Strips were then incubated with secondary mouse anti-human Ig 1:5000 1 h in room temperature, then washed 3×5 min, 1×15 min in the dish with TBS-tween. Strips were finally incubated with ECL reagents and exposed to film.

[4] = system: human dermal fibroblasts (HDF); assay: Cell adhesion to coated FBG, crystal violet; format: cell-based; conditions: coated wells, 45 minutes
Procedure: (§5) (A) The sequence identified to bind integrin αvβ3 is shown in white (Yokoyama et al., 2000). Within this sequence two Arginines (shown in black) were identified to be citrullinated. (B) Wells of a 96 well plate were coated with different concentrations of FBG, citrullinated FBG (cFBG), FBG incubated in buffer without Calcium (FBG —Ca^2+), or FBG incubated without PAD (FBG —PAD). As a positive control wells were coated with Fibronectin (FN) (1 ug/ml), and coating with BSA (10 mg/ml) served as negative control. Plates were incubated with human dermal fibroblasts (HDF) or synovial fibroblasts from RA patients (RAF) for 45 minutes and adhesion was measured by determining absorbance of attached cells after staining with crystal violet (0.1%). Data are shown as the mean of at least four independent experiments+s.e.m., *=p<0.05, **=p<0.01.

[5] = system: synovial membranes from RA patients; assay: Cytokine synthesis in RA synovial membrane cells stimulated with FBG; format: cell-based, human; conditions: FBG 1.0-0.01 μM, 24 h
Source text: as §3
Immediately after isolation, RA membrane cells and macrophages were cultured at 1×10^5 cells/well in RPMI 1640 containing 10% (v/v) FBS and 100 U/ml (Units/ml) penicillin/streptomycin in 96-well tissue culture plates for 24 hours before stimulation. […]
as §2

[6] = system: knee joint; assay: Intra-articular injection of FBG into mouse knee joint, histology; format: in vivo, mice; conditions: for joint inflammation, histology: wild type mice
Procedure: Wild type mice were anesthetized by intraperitoneal injection of 150 μl of Hypnorm diluted 1:10 in sterile water and then injected with 100 ng, 1 or 3 μg FBG in 10 μl of sterile PBS into the right knee joint using a sterile 33-gauge microcannula. Control mice received an injection of 10 μl PBS alone or were not injected.
On days 3 and 7, mice were euthanized, the knee joints were excised and fixed in 10% (volume/volume) buffered formalin, decalcified, with 10% EDTA and processed to paraffin.
Coronal tissue sections (4 μm) were cut at 7 depths throughout the joint; 80 μm apart and stained with hematoxylin and eosin or Safranin-O to assess joint pathology. Histopathologic changes were scored using the following parameters as described in Van Lent (2006).
Inflammation (the influx of inflammatory cells into synovium (infiltrate) and the joint cavity (exudates), was graded using an arbitrary scale from 0 (no inflammation) to 3 (severe inflammation). Chondrocyte death was determined as the percentage of cartilage area containing empty lacunae in relation to the total area. Cartilage surface erosion was determined as the amount of cartilage lost in relation to the total cartilage area. Bone destruction was determined in 10 different areas of the total knee joint section. Destruction was graded on a scale of 0 (no damage) to 3 (complete loss of bone structure). Histological analysis was performed by an investigator who was blinded to the experimental groups. The mean score for each animal in an experimental group was calculated by averaging the histopathologic scores in at least 5 section depths per joint.

[7] = system: embryonic fibroblasts or macrophages; assay: Cytokine synthesis in embryonic fibroblasts or macrophages from MyD88, TLR2 or TLR4 deficient mice; format: cell-based; conditions: FBG 1 μM, 24 h
Procedure: MEFs express high levels of mRNA of all 9 murine TLRs and are specifically and highly responsive to TLR ligand activation. […] MEFs were isolated from d13 embryos harvested from age-matched, pregnant female wild type, TLR2, TLR4 and null mice (as described in Todaro (1963)). Fibroblasts were cultured at 2×10^4 cells/well in DMEM containing 10% (v/v) FBS and 100 U/ml penicillin/streptomycin in 96-well tissue culture plates for 24 hours before stimulation.
BMDMs were derived by aspirating the femurs of age matched female wild type, TLR2 and TLR4 null mice as described in Butler (1999)) and culturing the cells for 7 days in DMEM, 20% (v/v) FBS, 10 ml/L (v/v) antibiotic-antimycotic solution PSA, 50 μM β-Mercaptoethanol and 10 ng/ml M-CSF. Macrophages were then cultured at 1×10^5 cells/well in DMEM, 20% (v/v) FBS, 10 ml/L (v/v) antibiotic-antimycotic solution PSA, 50 μM β-Mercaptoethanol in 96-well tissue culture plates for 24 hours before stimulation.
as §4, §2

[8] = system: synovial fibroblasts from RA joints (RAF); assay: Cell adhesion to coated FBG, crystal violet; format: cell-based, human; conditions: coated wells, 45 minutes
Procedure: as §5

Molecule	production of TNF-α, IL-6 and IL-8 ([1]; human macrophages)	TNF-α synthesis in fibroblasts [2]	cytokine synthesis (IL-6, IL-8) in synovial fibroblasts [2]	reactivity with sera in blots [3]	adhesion of HDF [4]	TNF-α synthesis in human macrophages ([1]; 1.0 μM tenascin-C domains)	synthesis of IL-6, IL-8 and TNF-α in RA synovial membranes [5]	joint inflammation ([6]; TLR2 null mice, 1 μg FBG intra-articular, 3 days)	joint inflammation, histology ([6]; 100 ng FBG intra-articular)	joint inflammation, histology ([6]; 1 μg FBG intra-articular, 3 days)	joint inflammation, histology ([6]; 3 μg FBG intra-articular)	cytokine synthesis in MyD88 deficient embryonic fibroblasts ([7]; MyD88 -/-)	cytokine synthesis in TLR2 deficient embryonic fibroblasts or macrophages ([7]; TLR2 -/-)	cytokine synthesis in TLR4 deficient embryonic fibroblasts or macrophages ([7]; TLR4 -/-)	adhesion of RAF [8]
tenascin-C: purified recombinant full-length human tenascin-C, native (non-citrullinated)	dose dependently stimulated	Neither LPS nor tenascin-C induced TNF-α synthesis	only induced IL-6 synthesis	No reactivity											
B1			did not induce IL-8 synthesis		proadhesive	stimulated	further enhanced synthesis of all these cytokines	able to induce joint inflammation	No inflammation or proteoglycan loss	inflammatory cell infiltration (FIG. 6f), mild synovitis, pannus formation (FIG. 6g) and proteoglycan loss (FIG. 6h)	A similar response	does not stimulate cytokine synthesis	unaffected	does not stimulate cytokine synthesis	proadhesive
